Measurements published in patent publication US12258605B2, “Alkane oxidation by modified hydroxylases” (The California Institute of Technology, priority 2005, dated 2025).
Where two headings read alike, the source gives them in different places.

B1: 35-E11: P450 BM-3 variant, SEQ ID NO:7: 53-5H substitutions plus E464G and I710T (protein)
chain: TIKEMPQPKTFGELKNLPLLNTDKPVQALMKIADELGEIFKFEAPGCVTRYLSSQRLIKEACDESRFDKNLSQALKFFRDFSGDGLFTSWTHEINWKKAHNILLPSFSQQAMKGYHAMMVDIAVQLVQKWERLNADEHIEVSEDMTRLTLDTIGLCGFNYRFNSFYRDQPHPFIISMVRALDEVMNKLQRANPDDPAYDENKRQCQEDIKVMNDLVDKIIADRKARGEQSDDLLTQMLNGKDPETGEPLDDGNISYQIITFLIAGHETTSGLLSFALYFLVKNPHVLQKVVEEAARVLVDPVPSYKQVKQLKYVGMVLNEALRLWPTFPAFSLYAKEDTVLGGEYPLEKGDEVMVLIPQLHRDKTIWGDDVEEFRPERFENPSAIPQHAFKPFGNGQRACIGQQFALHEATLVLGMMLKHFDFEDHTNYELDIKETLTLKPEGFVVKAKSKKIPLGGIPSPSTGQSAKKVRKKAENAHNTPLLVLYGSNMGTAEGTARDLADIAMSKGFAPQVATLDSHAGNLPREGAVLIVTASYNGHPPDNAKQFVDWLDQASADEVKGVRYSVFGCGDKNWATTYQKVPAFIDETLAAKGAENIADRGEADASDDFEGTYEEWREHMWSDVAAYFNLDIENSEDNKSTLSLQFVDSAADMPLAKMHGAFSTNVVASKELQQPGSARSTRHLEIELPKEASYQEGDHLGVIPRNYEGTVNRVTARFGLDASQQIRLEAEEEKLAHLPLAKTVSVEELLQYVELQDPVTRTQLRAMAAKTVCPPHKVELEALLEKQAYKEQVLAKRLTMLELLEKYPACEMKFSEFIALLPSIRPRYYSISSSPRVDEKQASITVSVVSGEAWSGYGEYKGIASNYLAELQEGDTITCFISTPQSEFTLPKDPETPLIMVGPGTGVAPFRGFVQARKQLKEQGQSLGEAHLYFGCRSPHEDYLYQEELENAQSEGIITLHTAFSRMPNQPKTYVQHVMEQDGKKLIELLDQGAHFYICGDGSQMAPAVEATLMKSYADVHQVSEADARLWLQQLEEKGRYAKDVWAG
modifications: mutant P450 35-E11 protein sequence
B2: Wild-type BM-3: wild-type cytochrome P450 BM-3 from Bacillus megaterium, SEQ ID NO:1 (protein, listed as Bacillus megaterium)
chain: TIKEMPQPKTFGELKNLPLLNTDKPVQALMKIADELGEIFKFEAPGRVTRYLSSQRLIKEACDESRFDKNLSQALKFVRDFAGDGLFTSWTHEKNWKKAHNILLPSFSQQAMKGYHAMMVDIAVQLVQKWERLNADEHIEVPEDMTRLTLDTIGLCGFNYRFNSFYRDQPHPFITSMVRALDEAMNKLQRANPDDPAYDENKRQFQEDIKVMNDLVDKIIADRKASGEQSDDLLTHMLNGKDPETGEPLDDENIRYQIITFLIAGHETTSGLLSFALYFLVKNPHVLQKAAEEAARVLVDPVPSYKQVKQLKYVGMVLNEALRLWPTAPAFSLYAKEDTVLGGEYPLEKGDELMVLIPQLHRDKTIWGDDVEEFRPERFENPSAIPQHAFKPFGNGQRACIGQQFALHEATLVLGMMLKHFDFEDHTNYELDIKETLTLKPEGFVVKAKSKKIPLGGIPSPSTEQSAKKVRKKAENAHNTPLLVLYGSNMGTAEGTARDLADIAMSKGFAPQVATLDSHAGNLPREGAVLIVTASYNGHPPDNAKQFVDWLDQASADEVKGVRYSVFGCGDKNWATTYQKVPAFIDETLAAKGAENIADRGEADASDDFEGTYEEWREHMWSDVAAYFNLDIENSEDNKSTLSLQFVDSAADMPLAKMHGAFSTNVVASKELQQPGSARSTRHLEIELPKEASYQEGDHLGVIPRNYEGIVNRVTARFGLDASQQIRLEAEEEKLAHLPLAKTVSVEELLQYVELQDPVTRTQLRAMAAKTVCPPHKVELEALLEKQAYKEQVLAKRLTMLELLEKYPACEMKFSEFIALLPSIRPRYYSISSSPRVDEKQASITVSVVSGEAWSGYGEYKGIASNYLAELQEGDTITCFISTPQSEFTLPKDPETPLIMVGPGTGVAPFRGFVQARKQLKEQGQSLGEAHLYFGCRSPHEDYLYQEELENAQSEGIITLHTAFSRMPNQPKTYVQHVMEQDGKKLIELLDQGAHFYICGDGSQMAPAVEATLMKSYADVHQVSEADARLWLQQLEEKGRYAKDVWAG

What was measured:
Assay type in all cases: biochemical
[1] = Reactions on alkanes, total turnovers (Table 18): butane; details: butane (4 C atoms); for TTN: total turnovers, standardized reaction conditions
Procedure: (§1) Reactions on alkanes. Reactions with alkanes from pentane to decane were carried out at 3 mL-scale using 100 mM KPi pH 8.0 buffer containing 2% ethanol (to allow alkane solubilization) and purified protein. 2.5 mL KPi buffer were added with 60 μL of 90 mM alkane solution in ethanol (final conc.=1.8 mM), 150 μL enzyme solution at 1 μM (final conc.=50 nM), and 300 μL NADPH regeneration solution (100 units/mL isocitrate dehydrogenase, 70 mg/mL isocitrate, 1.5 mg/ml NADP^+). Vials were sealed and stirred for 24 hours at 4° C. 1 mL-aliquot of the reaction was removed, added with 10 μl internal standard (25 mM 1-bromohexane in ethanol), and extracted with 200 μl chloroform (30 sec vortexing, 1 min centrifugation at 10000 g). The organic phase was removed and analyzed by gas chromatography. Reactions with ethane, propane, and butane were carried out as described for longer alkanes with the only difference that alkane-saturated KPi buffer was used. Propane reactions with variants from HL5 and L9 libraries were performed on 1 mL-scale reaction using 20 nM enzyme to reduce oxygen limitation. Propane and butane reactions were analyzed by direct injection of reaction solution on the GC using 1-pentanol as internal standard. Ethane reaction products were functionalized (see below) and analyzed by GC using 1-butanol as internal standard. All measurements were performed in triplicate.
(§2) Products from alkane reactions were identified and quantified by gas chromatography using authentic standards and calibration curves with internal standards. For the reactions with alkanes from pentane to decane, GC analyses were carried out using a Shimadzu GC-17A gas chromatograph, Agilent HP5 column (30 m×0.32 mm×0.1 μm film), 1 μL injection, FID detector, and the following separation program: 250° C. inlet, 250° C. detector, 50° C. oven for 3 min, 5° C./min gradient to 100° C., 25° C./min gradient to 230° C., and 230° C. for 3 min. For butane and propane (TTN) reactions, GC analyses were carried out using a Hewlett-Packard 5890 Series II Plus gas chromatograph, Supelco SPB-1 column (60 m×0.52 mm×0.5 μm film), 0.5 μL injection, FID detector, and the following separation program: 250° C. inlet, 275° C. detector, 80° C. oven for 2 min, 10° C./min gradient to 110° C., 25° C./min gradient to 275° C., and 275° C. for 2.5 min. For ethane and propane (rate) reactions, analysis of reaction mixtures was carried out by derivatization to alkyl nitrites followed by GC-ECD analysis. For laurate, reaction product analysis was carried out by derivatization with N-methyl-N-trimethylsilylheptafluorobutyramide followed by extraction with hexane. Organic solutions were analyzed by FID-GC.
(§3) TTNs for each variant-substrate pair were determined using standardized reaction conditions (identical enzyme and substrate concentration, incubation time, cofactor regeneration system) (Table 18). TTN values were used to assess performance because TTN is a cumulative measure of both catalytic and coupling efficiency and because mutants were selected based on improvement in this property. To facilitate comparison among the variants, TTNs were normalized to the highest value in the series (MTN=Maximal Turnover Number) and plotted for the increasing-sized substrates (FIG. 38). A gradual shift of the enzyme's substrate preference during laboratory evolution is evident from these profiles. The marginal activity of wild-type BM3 on these substrates (MTN=150) is restricted to the long-chain alkanes, where it is a promiscuous function of BM3's high C12-C20 fatty acid hydroxylase activity. In the first evolutionary intermediates, substrate preference centers on medium-chain alkanes […], reflecting their selection for activity on octane. In 35E11, selected for activity on propane, preference still centers on C6-C8 alkanes but now extends towards the shorter ones, including propane. Propane activity becomes prevalent with the transition from variant ETS8 to 19A12. […]

[2] = Reactions on alkanes, total turnovers (Table 18): pentane; details: pentane (5 C atoms); for % rel. act.: TTN normalized to the highest value of the variant's series; for TTN: total turnovers, standardized reaction conditions
Procedure: as §1, §2, §3

[3] = Kinetic constants for n-alkanes: heptane; details: N.m = not measurable
Procedure: Rate measurements. Initial rates of product formation were determined at 25° C. in 100 mM KPi pH 8.0 buffer using purified protein (100 nM) and a substrate concentration of 1.6 mM. In a 5 mL-vial, 20 μL of alkane solution (in ethanol) were dissolved in 400 μL KPi buffer, to which 500 μL enzyme solution at 100-200 nM was added. Reaction was initiated by adding 100 μL of 5 mM NADPH solution, followed by stirring at 300 rpm for 1 minute, and quenched by adding 200 μL chloroform and stirring at 800 rpm for 10 sec. Solutions were transferred to an Eppendorf tube, to which internal standard (10 μL 25 mM 1-bromohexane in ethanol) was added. Tubes were vortexed for 10 sec and centrifuged for 30 sec at 10,000 g. Organic phase was removed and analyzed by GC. For propane, reactions were carried out in a 5 mL-scale using 100-400 nM purified enzyme, propane-saturated buffer (propane concentration≈1.6 mM) and a final NADPH concentration of 500 μM. Reactions were stopped by addition of 200 μL H2SO4 conc. and analyzed by derivatization to alkyl nitrites followed by GC-ECD analysis as described below.
as §2
To further investigate the evolution of substrate specificity, kinetic constants for the C5 to C8 alkanes were determined from Michaelis-Menten plots (Table 19). The preference of 35E11 and its evolutionary predecessors for medium-chain alkanes is indicated by their high C8/C5 specificities ((kcat/Km)8/(kcat/Km)5˜100), where Km appears to be the major contributing factor. C8/C5 specificity decreases to ˜5 in the immediate precursors of P450PMO and then switches altogether to the smaller alkane, becoming 0.4 in P450PMO. In P450PMO, catalytic efficiency is highest on propane and decreases along the alkane series, driven by decreasing kcat.

[4] = Reactions on alkanes, total turnovers (Table 18): ethane; details: ethane (2 C atoms); for % rel. act.: TTN normalized to the highest value of the variant's series; for TTN: total turnovers, standardized reaction conditions
Procedure: as §1, §2, §3

[5] = Reactions on alkanes, total turnovers (Table 18): hexane; details: hexane (6 C atoms); for % rel. act.: TTN normalized to the highest value of the variant's series; for TTN: total turnovers, standardized reaction conditions
Procedure: as §1, §2, §3

[6] = Reactions on alkanes, total turnovers (Table 18): nonane; details: nonane (9 C atoms); for % rel. act.: TTN normalized to the highest value of the variant's series; for TTN: total turnovers, standardized reaction conditions
Procedure: as §1, §2, §3

| Molecule | TTN [1] | % rel. act. [2] [%] | TTN [2] | kcat [3] | Km ([3]; read-out: Km) [µM] | % rel. act. [4] [%] | TTN [4] | % rel. act. [5] [%] | TTN [5] | % rel. act. [6] [%] | TTN [6] | % rel. act. ([1]; TTN normalized to the highest value of the variant's series) [%] | Km [3] |
| --- | --- | --- | --- | --- | --- | --- | --- | --- | --- | --- | --- | --- | --- |
| B1 | 5150 ± 104 | 75.6 | 4800 ± 174 | 10.6 ± 1.38 s⁻¹ | 200 ± 46 | 3.5 | 220 ± 30 | 100.0 | 6350 ± 384 | 52.6 | 3350 ± 133 |  |  |
| B2 | 0 | 0.0 | 0 | n.m. |  | 0.0 | 0 | 6.3 | 10 ± 4 | 68.8 | 110 ± 10 | 0.0 | n.m. |
